In US12578343B2, “Selective ACKR3 modulators and uses thereof” (Luxembourg Institute of Health (LIH), priority 2019, dated 2026):

Experiments:
KOR = KOR (Homo sapiens, UniProt P41145); experiment: Receptor cell surface level of KOR by HiBiT technology; assay type: cell-based; design: expressed in transfected cells; host or cells: U87 cells, transient, PEI; conditions: bafilomycin A1 1.5 μM, 180-minute stimulation
Protocol: 1.14 Monitoring of Opioid Peptide-Induced Changes in Receptor Cell Surface Levels
Determination of receptor surface expression level by NanoLuc complementation assay was performed using the Nano-Glo HiBiT extracellular detection system (Promega) according to manufacturer's protocol. […] Cells were then incubated with HiBiT extracellular reagent, consisting of Nanoluciferase extracellular substrate and LgBiT protein in HiBiT buffer. Light emission from complementation of LgBiT protein with remaining surface receptor-fused HiBiT was determined on a Mithras LB940 plate reader (Berthold Technologies). Signal was normalised to the measurement recorded at t=1 min. Noteworthy the impact of nociceptin and derivatives could not be determined in this assay due to significant LgBiT protein cross-complementation by nociceptin. Where indicated, cells were treated with bafilomycin A1 (1.5 μM in 0.15% DMSO) (Santa Cruz Biotechnology) or 0.15% DMSO for 45 minutes prior ligand stimulation and during ligand stimulation (180 minutes).

ACKR3 [1] = biological target: T1, ACKR3 (Homo sapiens, UniProt P25106); experiment: Opioid peptide library screening: β-arrestin-2 recruitment to ACKR3 in U87 cells; assay type: cell-based; design: expressed in transfected cells; host or cells: U87 cells, transient co-transfection of pNBe vectors; conditions: 5 μM
Protocol: (§1) In brief, 1.2×10^6 U87 cells were plated in 10 cm-culture dishes and 48 hours later co-transfected with pNBe vectors encoding GPCRs C-terminally tagged to SmBiT and human β-arrestin-1 or -2 or mini G proteins (mG, engineered GTPase domains of Gα subunits,) N-terminally fused to LgBiT. 48 hours post-transfection cells were harvested, incubated 25 minutes at 37° C. with Nano-Glo Live Cell substrate diluted 200-fold and distributed into white 96-well plates (5×10^4 cells per well). Ligand-induced, β-arrestin and mG recruitment to GPCRs was evaluated with a Mithras LB940 luminometer (Berthold Technologies) for 20 minutes. For concentration-response curves, the signal recorded with a saturating concentration of full agonist for each receptor was set as 100%.
Target sequence in this assay (P25106 whole entry, the tested form may be a part): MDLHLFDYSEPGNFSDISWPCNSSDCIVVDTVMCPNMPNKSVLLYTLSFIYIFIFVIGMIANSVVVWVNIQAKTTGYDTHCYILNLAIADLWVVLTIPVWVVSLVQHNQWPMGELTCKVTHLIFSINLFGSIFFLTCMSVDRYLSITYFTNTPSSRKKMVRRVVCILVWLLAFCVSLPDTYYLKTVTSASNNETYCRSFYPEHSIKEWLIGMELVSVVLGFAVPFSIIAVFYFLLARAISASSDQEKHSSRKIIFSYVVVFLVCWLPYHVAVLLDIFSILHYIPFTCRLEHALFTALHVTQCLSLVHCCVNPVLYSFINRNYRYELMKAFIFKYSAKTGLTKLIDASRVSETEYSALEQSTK
Target sequence in this assay (P32121 whole entry partner, the tested form may be a part): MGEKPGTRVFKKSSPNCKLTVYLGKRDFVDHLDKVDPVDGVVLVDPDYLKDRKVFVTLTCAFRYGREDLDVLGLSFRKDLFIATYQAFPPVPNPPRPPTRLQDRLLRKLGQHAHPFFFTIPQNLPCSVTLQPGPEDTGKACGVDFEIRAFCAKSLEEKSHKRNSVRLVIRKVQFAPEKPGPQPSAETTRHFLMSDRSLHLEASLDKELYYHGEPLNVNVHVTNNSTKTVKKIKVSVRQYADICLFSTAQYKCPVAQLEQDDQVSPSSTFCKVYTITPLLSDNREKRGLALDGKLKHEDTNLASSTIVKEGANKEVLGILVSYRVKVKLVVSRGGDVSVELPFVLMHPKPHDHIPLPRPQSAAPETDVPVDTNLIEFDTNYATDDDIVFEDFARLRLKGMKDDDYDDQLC

ACKR3 [2] = experiment: B-arrestin-1 | ACKR3 | EC50 (nM)
Text: Table printed on a drawing sheet, FIG. 1 (continued) H
Head of the field: B-arrestin-1 | ACKR3 | EC50 (nM)
The patent's description of the figure: FIG. 1 Opioid peptide library screening on ACKR3, hit confirmation and comparison with classical opioid receptors. (A) The ability of 58 compounds, including natural opioid peptides from the four opioid families, variants thereof and small molecule opioid receptor modulators, to induce β-arrestin-2 recruitment to ACKR3, CXCR4 and CXCR3 in U87 cells at a concentration of 5 μM. Positive control chemokines were used at a concentration of 300 nM. Results are expressed as fold change over vehicle-treated cells and presented as mean±S.D of two replicates (B-F) Comparison of potency and efficacy of ACKR3-activating peptides in inducing β-arrestin-1 recruitment to the opioid receptors MOR (B), DOR (C), KOR (D), NOP (E) and ACKR3 (F) in U87 cells. Results are expressed as percentage of indicated agonist response. […] Results from B—H are presented as mean±S.E.M (n ? 3).
Where the first naming reader finds the target: head: B-arrestin-1 | ACKR3 | EC50 (nM)

CXCR4 [3] = biological target: T2, CXCR4 (Homo sapiens, UniProt P61073); experiment: HTRF ERK1/2 phosphorylation, U87 cells stably expressing CXCR4; assay type: cell-based; conditions: between 2 and 120 minutes after stimulation
T2 construct: expressed in transfected cells; pcDNA3.1 transient for DMR
Protocol: 1.6 Homogeneous Time-Resolved Fluorescence (HTRF)-Based Extracellular Signal Regulated Kinases 1 and 2 (ERK1/2) Phosphorylation Assays
Homogeneous Time-Resolved Fluorescence (HTRF)-based phospho-ERK1/2 and total-ERK1/2 assays were performed using phospho-ERK1/2 (Thr202/Tyr204) and total-ERK1/2 cellular kits (Cisbio International). In short, for quantification of total and phosphorylated ERK1/2 protein, U87 cells stably expressing (or not) ACKR3 or CXCR4 were seeded at a density of 3.5×10^4 cells per well into 96-well poly-D-lysine (PDL)-coated microtiter plates (Sigma-Aldrich). After overnight incubation, cells were starved for 4 hours at 37° C. in serum-free medium. Cells were then stimulated for the indicated time intervals with chemokine or opioid ligands, respectively, before termination by replacement of supernatants with lysis buffer followed by 1.5 hours incubation on an orbital shaker. […] D2-labeled anti-total-ERK1/2 and Eu^3+-Cryptate-labelled anti-total-ERK1/2 antibodies were added for quantification of total-ERK1/2 abundance. Following an incubation time of at least 2 hours (phospho-ERK1/2) or 24 hours (total-ERK1/2), time-resolved FRET signals were measured using the Mithras LB 940 multimode reader (Berthold Technologies) equipped with 320 nm excitation filter and 620 nm (donor) and 665 nm (acceptor) emission filters.

CXCR4 [4] = biological target: T2, CXCR4; experiment: Dynamic mass redistribution (DMR), U87 cells expressing CXCR4; assay type: cell-based; conditions: 200 nM
Protocol: 1.5. Label-Free Dynamic Mass Redistribution (DMR) Assay
Dynamic mass redistribution (DMR) experiments were conducted using the Corning Epic (Corning) biosensor system as previously described in Schröder, R. et al. Deconvolution of complex G protein-coupled receptor signaling in live cells using dynamic mass redistribution measurements. Nat Biotechnol 28, 943-949 (2010) and Schröder, R. et al. Applying label-free dynamic mass redistribution technology to frame signaling of G protein-coupled receptors noninvasively in living cells. Nat Protoc. 6(11): 1748-1760 (2011). In brief, 6×10^5 U87 cells were seeded in 6-cm dishes. 24 hours later cells were transfected with pcDNA3.1-based expression plasmids coding for the respective chemokine (ACKR3, CXCR4) or opioid (KOR, NOP) receptors using polyethylenimine (PEI) reagent (Polysciences). 24 hours after transfection 1×10^4 cells per well were transferred to a 384-well Epic biosensor plate and incubated (37° C., 5% CO2) overnight. Cells were then washed twice with Hanks' balanced salt solution (HBSS) (Life Technologies) containing 20 mM HEPES (Life Technologies) and subsequently incubated in the DMR-reader for 1.5 hours to achieve temperature equilibration (37° C.). […] Alterations of ligand-induced DMR were monitored for at least 3000 seconds. Raw data were processed and analysed using GraphPad Prism 7.05 (GraphPad Inc).

[5] = biological target: T3, native or CXCR4-expressing U87 cells (Homo sapiens, UniProt P61073); experiment: Binding of fluorescently labelled LIH383 to native or CXCR4-expressing cells
T3 construct: expressed in transfected cells; pcDNA3.1 transient for DMR

CX3CR1 = biological target: T4, CX3CR1 (Homo sapiens, UniProt P49238); experiment: β-arrestin recruitment to CX3CR1 (NanoBiT); assay type: cell-based; conditions: saturating concentration (3 μM)
T4 construct: expressed in transfected cells; host or cells: U87 cells, transient co-transfection of pNBe vectors
T4 sequence (P49238 1-355): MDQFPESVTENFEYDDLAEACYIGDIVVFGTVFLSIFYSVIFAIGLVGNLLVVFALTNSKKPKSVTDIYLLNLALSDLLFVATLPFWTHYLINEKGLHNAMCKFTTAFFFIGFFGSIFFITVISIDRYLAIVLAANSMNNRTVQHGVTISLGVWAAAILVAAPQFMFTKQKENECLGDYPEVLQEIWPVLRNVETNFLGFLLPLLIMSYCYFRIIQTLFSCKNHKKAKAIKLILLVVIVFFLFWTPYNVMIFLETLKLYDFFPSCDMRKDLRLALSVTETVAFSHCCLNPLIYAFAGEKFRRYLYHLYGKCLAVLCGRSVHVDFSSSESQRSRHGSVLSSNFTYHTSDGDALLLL
Protocol: as §1

CCR3 = biological target: T5, CCR3 (Homo sapiens, UniProt P51677); experiment: β-arrestin recruitment to CCR3 (NanoBiT); assay type: cell-based; conditions: saturating concentration (3 μM)
T5 construct: expressed in transfected cells; host or cells: U87 cells, transient co-transfection of pNBe vectors
T5 sequence (P51677 1-355): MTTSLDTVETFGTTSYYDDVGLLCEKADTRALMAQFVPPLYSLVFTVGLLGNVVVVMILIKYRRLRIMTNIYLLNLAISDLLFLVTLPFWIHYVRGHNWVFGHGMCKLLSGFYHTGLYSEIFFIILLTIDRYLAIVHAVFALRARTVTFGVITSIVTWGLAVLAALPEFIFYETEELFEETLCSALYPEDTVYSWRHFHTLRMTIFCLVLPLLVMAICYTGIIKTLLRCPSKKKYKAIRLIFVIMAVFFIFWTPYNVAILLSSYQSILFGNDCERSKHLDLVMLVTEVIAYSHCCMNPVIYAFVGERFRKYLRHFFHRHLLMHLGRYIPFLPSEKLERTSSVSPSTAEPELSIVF
Protocol: as §1

ACKR3 [6] = biological target: T1, ACKR3; assay type: cell-based; design: expressed in transfected cells; host or cells: U87 cells, transient co-transfection of pNBe vectors; conditions: U87 cells
Target sequence in this assay (P25106 whole entry, the tested form may be a part): as the sequence (P25106 whole entry, the tested form may be a part) above
Target sequence in this assay (P49407 whole entry partner, the tested form may be a part): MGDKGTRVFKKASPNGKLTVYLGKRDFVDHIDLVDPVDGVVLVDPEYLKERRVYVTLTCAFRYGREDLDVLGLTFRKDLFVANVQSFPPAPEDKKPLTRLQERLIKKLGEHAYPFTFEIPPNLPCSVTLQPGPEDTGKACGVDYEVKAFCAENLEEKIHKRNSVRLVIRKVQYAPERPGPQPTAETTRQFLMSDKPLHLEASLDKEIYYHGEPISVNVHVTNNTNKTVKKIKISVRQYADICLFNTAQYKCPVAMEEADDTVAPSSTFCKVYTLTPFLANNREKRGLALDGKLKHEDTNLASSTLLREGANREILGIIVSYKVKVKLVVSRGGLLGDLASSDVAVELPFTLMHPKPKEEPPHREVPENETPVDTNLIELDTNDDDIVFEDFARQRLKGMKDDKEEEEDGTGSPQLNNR

CXCR3 = experiment: β-arrestin recruitment to CXCR3 (NanoBiT); assay type: cell-based, human; conditions: saturating concentration (3 μM)
Protocol: as §1

T2 sequence (P61073 whole entry): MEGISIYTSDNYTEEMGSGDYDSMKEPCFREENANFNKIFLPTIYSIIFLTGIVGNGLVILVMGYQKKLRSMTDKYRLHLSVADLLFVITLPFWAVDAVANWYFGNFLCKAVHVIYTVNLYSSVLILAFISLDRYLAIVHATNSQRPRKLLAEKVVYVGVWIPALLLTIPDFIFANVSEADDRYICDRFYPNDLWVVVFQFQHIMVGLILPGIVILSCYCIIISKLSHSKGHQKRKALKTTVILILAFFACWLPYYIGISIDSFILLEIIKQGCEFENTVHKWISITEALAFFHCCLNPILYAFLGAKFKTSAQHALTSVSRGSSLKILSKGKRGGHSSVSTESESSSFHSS
Sequence of CXCR3 (P49682 5-368 limits assumed): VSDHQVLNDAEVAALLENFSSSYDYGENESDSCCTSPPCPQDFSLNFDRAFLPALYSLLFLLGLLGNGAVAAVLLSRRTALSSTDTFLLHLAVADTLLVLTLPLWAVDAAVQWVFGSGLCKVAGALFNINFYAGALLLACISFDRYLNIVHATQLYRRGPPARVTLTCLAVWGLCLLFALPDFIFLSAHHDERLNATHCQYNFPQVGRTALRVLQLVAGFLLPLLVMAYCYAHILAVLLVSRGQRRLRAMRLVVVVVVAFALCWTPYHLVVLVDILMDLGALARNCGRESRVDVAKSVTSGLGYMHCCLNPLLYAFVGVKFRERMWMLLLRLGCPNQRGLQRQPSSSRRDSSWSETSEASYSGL
Sequence of KOR (P41145 whole entry): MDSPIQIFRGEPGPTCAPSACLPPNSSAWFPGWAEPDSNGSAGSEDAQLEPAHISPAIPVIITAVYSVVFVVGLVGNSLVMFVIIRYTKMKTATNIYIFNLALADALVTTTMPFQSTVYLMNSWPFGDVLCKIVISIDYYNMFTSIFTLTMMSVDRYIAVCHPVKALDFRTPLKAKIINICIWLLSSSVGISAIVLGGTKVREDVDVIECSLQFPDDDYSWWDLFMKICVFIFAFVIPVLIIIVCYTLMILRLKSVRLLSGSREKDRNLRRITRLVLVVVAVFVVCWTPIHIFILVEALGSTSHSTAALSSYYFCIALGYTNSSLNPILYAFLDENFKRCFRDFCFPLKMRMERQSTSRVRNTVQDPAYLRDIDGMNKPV
T3 sequence (P61073 whole entry): as the sequence (P61073 whole entry) above

CO/C1=C\C(C)=C\[C@@H](C)[C@@H](O)[C@@H](C)C/C(C)=C/C=C/[C@H](OC)[C@@H]([C@@H](C)[C@@H](O)[C@H](C)[C@@]2(O)C[C@@H](O)[C@H](C)[C@@H](C(C)C)O2)OC1=O [bafilomycin A1]
surface levels of KOR following stimulation with opioid peptides (KOR): no effect on surface levels of KOR

BAM18: opioid peptide previously reported as ACKR3 ligand (YGGFMRRVGRPEWWMDYQ)
ability to induce β-arrestin-2 recruitment to ACKR3 (library screening) (ACKR3 [1]): capable of inducing β-arrestin-2 recruitment to ACKR3

BAM22: proenkephalin-derived opioid peptide
EC50 (ACKR3 [2]): 23.5 nM

CXCL12: C—X—C motif chemokine 12, endogenous ACKR3 chemokine ligand
ERK phosphorylation, cells stably expressing CXCR4 (CXCR4 [3]): strong increase in ERK phosphorylation
DMR response of CXCR4-expressing U87 cells (CXCR4 [4]): strong DMR

Cy-5-labelled LIH383: fluorescently labelled LIH383 (LIH383-Cy5)
binding to native or CXCR4-expressing U87 cells [5]: not to native or CXCR4-expressing U87 cells

big dynorphin: the precursor of dynorphin A and B
β-arrestin recruitment to CX3CR1 (CX3CR1): faint induction of β-arrestin recruitment
β-arrestin recruitment to CCR3 (CCR3): faint induction of β-arrestin recruitment
β-arrestin recruitment to ACKR3: agonist activity/potency in words (ACKR3 [6]): at low concentrations comparable to their activity on the classical opioid receptors
β-arrestin recruitment to CXCR3 (CXCR3): faint induction of β-arrestin recruitment
